Results from patent US10772928B2, “Modulation and detection of a neuronal alternative splicing regulatory network for treatment and diagnosis of neurological disorders” (The Governing Council of the University of Toronto, priority 2014, dated 2020).
“Also recorded” adds a separate entry of the source. Peptide text beside a SMILES is read from it. * marks the point of attachment. Cbz = O=C(OCc1ccccc1)*

These compounds were tested on nSR100 (assay: nSR100 protein (western blot) and mRNA (qRT-PCR) levels in KCl-depolarized DIV11 cortical neurons). Conditions: 30 minutes into KCl treatment, DIV11 cortical neurons.
Format: cell-based, mouse
Source text: A) Overlap between microexons that are skipped in humans with ASD (upper set), skipped upon neuronal depolarization (lower left set) and nSR100-regulated microexons (lower right set). B) Microexons were plotted based on their PSI difference between depolarized and resting wild-type neurons (X-axis), and between nSR100^Δ7-8/Δ7-8 and nSR100^+/+ mice (Y-axis). C) Cumulative distribution plots indicating the position of the first UGC motif within 200 nt upstream of neuronal activity-regulated microexons (dashed curve) or longer cassette exons (thick solid curve) vs. non-neural alternative cassette exons (light solid curve). The number of exons used to analyze each subgroup is shown in parentheses. D) Western blot on KCl-treated DIV11 cortical neurons (left panel) and quantification of nSR100 protein level (right panel). E) RT-PCR showing increased intron retention and microexon inclusion in nSR100 transcripts early after depolarization of DIV11 cortical neurons. […] G) Representative RT-PCRs on nuclear and cytosolic fractions (left panel) to assess localization of nSR100 transcripts in three replicates of cultured DIV4 cortical neurons with qRT-PCR quantification of the abundance of nSR100 isoforms harboring the retained intron, normalized to GAPDH levels in the correspondent cell fractions from six replicates (right panel). […]

Q: [Cl-].[K+] [KCl] was tested. Which “decrease in nSR100 protein levels” value did it give?
A: 2 fold

Same assay, conditions: thirty minutes after depolarization, qRT-PCR

Q: Which “nSR100 mRNA levels” value does the source give for [Cl-].[K+] [KCl] here?
A: remain steady

The compounds below were run on hippocampal mouse neurons (assay: RNA-Seq analysis of alternative splicing events after KCl depolarization of cultured hippocampal neurons (Table 3)). Conditions: 30 minutes after KCl treatment, change of at least 15.
Format: cell-based
Description: A) Number of alternative splicing events with PSI, percent intron retention (PIR) or percent splice site usage (PSU) changes of at least 15, 30 minutes and 3 hours after neuronal depolarization. B) Microexons and cassette exons are preferentially skipped following neuronal depolarization, whereas retained introns show no directionality. C) Gene ontology analysis of microexons and cassettes exons with ΔPSI≥15 during neuronal depolarization.
A systematic analysis of alternative splicing events modulated by neuronal activity, including microexons, longer cassette exons, retained introns and alternative 5′ and 3′ splice sites was first performed. Cultured wild-type hippocampal mouse neurons were depolarized using KCl treatment for thirty minutes or three hours and RNA-Seq analysis was performed on these samples. […] Among the additional alternative splicing events affected by neuronal depolarization were 887 (of 10830 detected alternative cassette exons>27 nt; 8.1%) alternative cassette exons and 672 retained introns. Longer alternative cassette exons were also primarily skipped in depolarized neurons (747/887; 84.2%) (FIG. 42B). Genes harboring depolarization-dependent alternative cassette exons have functions related to signal transduction and transcription regulation whereas those with microexons relate primarily to vesicle transport (FIG. 42C).

Q: How did the “number of alternative splicing events displaying changes” value turn out when [Cl-].[K+] [KCl] was run?
A: 222

Same assay, conditions: 3 hours of KCl treatment

Q: What does the source list for [Cl-].[K+] [KCl]?
A: microexons with increased skipping, share of all microexons: 14.7%; number of microexons with higher inclusion levels: 7; number of microexons with increased skipping (of 598 detected): 88

Same assay, conditions: 3 hours of KCl treatment, change of at least 15

Q: For [Cl-].[K+] [KCl], which “number of alternative splicing events displaying changes” value is on record?
A: 1,829

The compounds below were run on nSR100 (assay: nSR100 protein levels by western blot in dox-inducible, nSR100-expressing 293T cells). Conditions: versus DMSO or control siRNAs.
Format: cell-based, human
Source text: Tubulin detection was used as loading control.
RT-PCR assays were used to confirm FBXW11 knockdown. nSR100 protein levels were monitored using a western blot. Tubulin and 1-actin detection was used to control for loading.
By applying affinity purification coupled to mass-spectrometry (AP-MS), several interaction nSR100 partner proteins were detected that provide insight into mechanisms of post-translational regulation of nSR100 levels. For example, AP-MS experiments identified the F-box protein FBXW11 (also known as 1TRCP2) as an nSR100 interaction partner. The Skp-Cullin-F-box (SCF) complex is a multi-protein complex that regulates cellular protein levels via ubiquitin-mediated proteolysis. FBXW11 is an E3 ubiquitin ligase that confers specificity to the SCF complex by recognizing a particular phosphodegron on targets. In addition, Skp1, which is required for recognizing and binding FBXW11, was also detected in nSR100 AP-MS experiments. Phosphorylation of consensus binding sites for F-box proteins, including FBXW11, is typically required for targeting of proteins for degradation by the proteosomal pathway. The set of nSR100 interaction partners identified by AP-MS included several kinases such as PLK1, GSK3B, CSNK2, CSNK1, CDK1 and SRPK1, as well as other kinases that may control nSR100 levels and or activity.

Q: CC(C)C[C@@H](C=O)NC(=O)[C@H](CC(C)C)NC(=O)[C@H](CC(C)C)NC(=O)OCc1ccccc1 [MG132] (Cbz-Leu-Leu-Leu-aldehyde) was tested. Which nSR100 protein levels did it give?
A: increased levels of SRRM4; also recorded: significant increases in levels of nSR100

These compounds were tested against T1, nSR100 (Mus musculus, UniProt Q8BKA3) (assay: Regulation by nSR100: microexon inclusion level (PSI) by RNA-Seq in mouse N2A cells depleted of nSR100 (Table 2)). Conditions: YES/NO.
T1 construct: host or cells: mouse N2A cells
T1 sequence (Q8BKA3 1-608): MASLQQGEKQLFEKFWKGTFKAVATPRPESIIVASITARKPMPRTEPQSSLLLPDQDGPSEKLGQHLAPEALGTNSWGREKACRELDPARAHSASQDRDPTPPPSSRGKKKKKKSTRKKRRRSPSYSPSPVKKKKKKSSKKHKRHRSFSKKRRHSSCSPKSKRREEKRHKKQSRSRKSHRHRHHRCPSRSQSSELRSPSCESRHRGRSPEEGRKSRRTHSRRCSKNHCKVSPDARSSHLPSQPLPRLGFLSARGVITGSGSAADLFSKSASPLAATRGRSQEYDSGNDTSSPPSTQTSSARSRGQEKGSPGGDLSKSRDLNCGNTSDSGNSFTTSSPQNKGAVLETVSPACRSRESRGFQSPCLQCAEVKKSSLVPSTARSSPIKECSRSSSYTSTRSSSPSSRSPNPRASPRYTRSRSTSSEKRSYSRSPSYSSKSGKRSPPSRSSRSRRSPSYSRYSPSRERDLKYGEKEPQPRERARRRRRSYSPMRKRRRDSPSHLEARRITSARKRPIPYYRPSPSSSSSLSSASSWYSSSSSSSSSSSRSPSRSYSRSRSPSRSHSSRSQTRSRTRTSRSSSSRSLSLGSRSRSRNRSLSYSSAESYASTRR
Format: cell-based
Source text: A-H) Percent of neural-regulated exons within each length class that is affected at 15<|ΔPSI|<25 and |ΔPSI|>25 by (A) RBFOX1 knockdown in human neural precursor cells; (B) MBNL1 and MBNL2 double knockdown in human HeLa cells; (C) ESRP1 knockdown in human PNT2 cells; (D) nSR100/Srrm4 knockdown in mouse N2A cells; (E) Ptbp1 knockdown in mouse N2A cells; (F) Ptbp2 knockout in mouse cortex (P1 stage); (G) Ptbp2 knockout in mouse embryonic brain (18.5 days post-conception); and (H) Rbfox1 knockout. p values correspond to two-sided proportion tests of regulated versus non-regulated events. I) Expression of nSR100 in different isolated brain cell types (Zhang et al., 2014). Error bars indicate SEM. […]
An RNA-Seq analysis pipeline was developed to detect and quantify all AS event classes involving all hypothetically possible splice junctions formed by the usage of annotated and unannotated splice sites, including those that demarcate microexons. […]
A multi-module analysis pipeline was developed that uses RNA-Seq, expressed sequence tag (EST) and cDNA data, as well as gene annotations and evolutionary conservation, to assemble libraries of exon-exon-junctions (EEJs) for subsequent read alignment to detect and quantify AS events in RNA-Seq data. […] Alt3 or Alt5 events were quantified based on the fraction of reads supporting the usage of each alternative splice site. […]

Q: Sbf1 was tested. Which “Regulation by nSR100” value did it give?
A: YES

Same assay, conditions: threshold change of PSI≥10

Q: Dtnb was tested. Which “Regulation by nSR100” value did it give?
A: YES

The compounds below were run against T1, nSR100 (assay: AP-MS nSR100 interaction partners from mouse N2A cells (Table 5)). Conditions: bait Srrm4.
Format: binding

Q: For Rfc2, which “AvgP (average of the SAINT scores)” value is on record?
A: 0.95

Q: And the “MaxP (maximal SAINT score)” value?
A: 0.95

Q: Which “AvgP (average of the SAINT scores)” value does the source give for Snrnp70 here?
A: 1

Q: And the “MaxP (maximal SAINT score)” value?
A: 1

Q: With Snrpc as the compound, how does the “AvgP (average of the SAINT scores)” value read?
A: 0.99

Q: What about the “MaxP (maximal SAINT score)” value of the same compound?
A: 1

Q: Which “AvgP (average of the SAINT scores)” value does the source give for Son here?
A: 0.98

Q: And the “MaxP (maximal SAINT score)” value?
A: 1

Q: Which “AvgP (average of the SAINT scores)” value does the source give for Srrm2 here?
A: 1

Q: And the “MaxP (maximal SAINT score)” value?
A: 1

Q: With Wdr48 as the compound, how does the “AvgP (average of the SAINT scores)” value read?
A: 1

Q: What about the “MaxP (maximal SAINT score)” value of the same compound?
A: 1

Q: Ywhae was tested. Which “AvgP (average of the SAINT scores)” value did it give?
A: 1

Q: What about the “MaxP (maximal SAINT score)” value of the same compound?
A: 1

Same assay, conditions: bait Srrm4, 0.1 added to prevent division by 0

Q: Rfc2 was tested. Which “FoldChange between the prey Avg spectra of the bait and control purifications” value (“FoldChange between the prey Avg spectra” for short) did it give?
A: 20

Q: For Snrnp70, which “FoldChange between the prey Avg spectra” value is on record?
A: 5.1

Q: For Snrpc, which “FoldChange between the prey Avg spectra” value is on record?
A: 11

Q: Which “FoldChange between the prey Avg spectra” value does the source give for Son here?
A: 45

Q: How did the “FoldChange between the prey Avg spectra” value turn out when Srrm2 was run?
A: 5.37

Q: For Wdr48, which “FoldChange between the prey Avg spectra” value is on record?
A: 45

Q: With Ywhae as the compound, how does the “FoldChange between the prey Avg spectra” value read?
A: 3.57

Same assay, conditions: bait Srrm4, 2 replicates

Q: Which “AvgSpec (average number of spectra per replicate)” value does the source give for Rfc2 here?
A: 2

Q: With Snrnp70 as the compound, how does the “AvgSpec (average number of spectra per replicate)” value read?
A: 51

Q: How did the “AvgSpec (average number of spectra per replicate)” value turn out when Snrpc was run?
A: 5.5

Q: Son was tested. Which “AvgSpec (average number of spectra per replicate)” value did it give?
A: 4.5

Q: How did the “AvgSpec (average number of spectra per replicate)” value turn out when Srrm2 was run?
A: 51

Q: Which “AvgSpec (average number of spectra per replicate)” value does the source give for Wdr48 here?
A: 4.5

Q: Ywhae was tested. Which “AvgSpec (average number of spectra per replicate)” value did it give?
A: 25

Same assay, conditions: bait Srrm4, biological replicate 1 (first number of the cell), AP-MS

Q: How did the “Spectra (number of spectra for the prey in the purification of the bait)” value turn out when Rfc2 was run?
A: 2|2

Q: With Snrnp70 as the compound, how does the “Spectra (number of spectra for the prey in the purification of the bait)” value read?
A: 48

Q: For Snrpc, which “Spectra (number of spectra for the prey in the purification of the bait)” value is on record?
A: 5

Q: Son was tested. Which “Spectra (number of spectra for the prey in the purification of the bait)” value did it give?
A: 2

Q: For Srrm2, which “Spectra (number of spectra for the prey in the purification of the bait)” value is on record?
A: 47

Q: With Wdr48 as the compound, how does the “Spectra (number of spectra for the prey in the purification of the bait)” value read?
A: 3

Q: Which “Spectra (number of spectra for the prey in the purification of the bait)” value does the source give for Ywhae here?
A: 24

Same assay, conditions: bait Srrm4, biological replicate 2 (second number of the cell), AP-MS

Q: Which “Spectra (number of spectra for the prey in the purification of the bait)” value does the source give for Rfc2 here?
A: 2|2

Q: How did the “Spectra (number of spectra for the prey in the purification of the bait)” value turn out when Snrnp70 was run?
A: 54

Q: How did the “Spectra (number of spectra for the prey in the purification of the bait)” value turn out when Snrpc was run?
A: 6

Q: Son was tested. Which “Spectra (number of spectra for the prey in the purification of the bait)” value did it give?
A: 7

Q: With Srrm2 as the compound, how does the “Spectra (number of spectra for the prey in the purification of the bait)” value read?
A: 55

Q: Wdr48 was tested. Which “Spectra (number of spectra for the prey in the purification of the bait)” value did it give?
A: 6

Q: Ywhae was tested. Which “Spectra (number of spectra for the prey in the purification of the bait)” value did it give?
A: 26

Same assay, conditions: bait Srrm4, sum of spectra over 2 replicates

Q: How did the SpecSum turn out when Rfc2 was run?
A: 4

Q: Snrnp70 was tested. Which SpecSum did it give?
A: 102

Q: How did the SpecSum turn out when Snrpc was run?
A: 11

Q: Which SpecSum does the source give for Son here?
A: 9

Q: With Srrm2 as the compound, how does the SpecSum read?
A: 102

Q: With Wdr48 as the compound, how does the SpecSum read?
A: 9

Q: With Ywhae as the compound, how does the SpecSum read?
A: 50
